Assay: yeast display, Sf9 membrane polyspecificity reagent, FACS + sequencing; frameworks hold sequencing errors
Summary of the method: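 Sorting gates, low and high (top ~1%), were placed on anti-HA fluorescence to track expression and on streptavidin fluorescence to track reagent binding. A clone's polyreactivity label is taken from the gate it came out of. The reagent was 10% biotinylated, detergent-solubilized Sf9 membrane, applied for 1 hour at 4 °C to galactose-induced yeast display cells.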

Row | Sequence | polyreactivity (PSR sort gate)
1 | QVQLVESGGGLVQAGGSLRLSCAASGSTFYVYPMGWYRQAPGKERELVAAITRGGTTYYADSVKGRFTISRDNAKNTVYLQMNSLKPEDTAVYYCAKYLTGAADLVPEYDYWGQGTQVTVSS | low polyreactivity
2 | QVQLVDSGGGLVQAGGSLRLSCAASGSTLNVYAMGWSRQAPGKERELVATIRRRGTSTYYADSVKGRFTISRDNAKNTVYLQMNSLKPEDTAVYYCAADTRTYRLSSGSGHWEYDYWGQGTQVTVSS | high polyreactivity
3 | QVQLVESCGGLVQAGGSLRLICAASGSIFFRNAKGWYRQAPGKERELVAAIRYTGTSTYYADSVKGRFTISRDNAKNTVYVQMNSLKPEDTAVYYCAKPWGSVRRREMDYWGQGTQVTVSS | low polyreactivity
4 | QVQLVESGRGLVQAGGSLRLSCAASGIIFTYNAMGWYRQAPGKERELVAAISAGGGSTYYADSVKGRFTISRDNAKNTVYLQMNSLKPEDTAVYYCAAARRYATQFHYDSWGQGTQVTVSS | high polyreactivity
5 | QVQLVESGGGLVQAGGSLRLSCAASVFTFAPNAMGWYRQAPGKERELVAVIDSGGSTNYADSVKGRFTISRDNAKNTVYLQMNSLKPEDTAVYYCATDVPLDYYWLWDDYWGQGTQVTVSS | low polyreactivity
6 | QVQLVESAGGLVQAGGSLRLSCAASGSIFYYYAMGWYRQAPGKERELVATISSSSGSTYYADSVKGRFTISRDNAKYTVYLQMNRLKPEDTAVYYCATVSGSVWQRWVYANYDFWGQGTQVTVSS | low polyreactivity
7 | QVQLGESGGGLVQAGGSLRLSCAPSGSTFNRFARGWYILAPGNVRELVAAISRSGGSTYYADSVKGRFTISRDNPKTTLYLQMNSLKPEDTAVYYCAADRTGHGFGYWGQGTQVTVSS | high polyreactivity
8 | QVQLVESGGGLVQAGGSLRLSCAASGITIWWYAMGWYRQAPGKERELLAAITGGGSTNYADSVKGRFTISRDNAKNTVYLQMNSLKPEDTAVYYCAATGSPARNWDTVTGYYYWGQGTQVTVSS | low polyreactivity
9 | QVQLVESGGGLVQAGGSLRLSCAASGRTICRNVMGWYRQAPGKERELVAAISRSGGSTYYADSVKGRFTISRDNAKNTVYLQMNSLKPEVTAVYYCAAYSVGDYYWGQGTQVTVSS | high polyreactivity
10 | QVQLVETGGGLVQAGGSLRLSSAASGFIFGTYTMGWYRQAPGKERELVAAISTSSGSTYYADSVKGRFTISRDNAKNTVYLQMNSLKPEDTAVYYCAAPTRSYGTPPYDYWGQGTQVTVSS | low polyreactivity
11 | QVQLVESGGGIVQAGGSLRLSCAASGFIFYWNAMGRYRQAPGKERELVAGITSGGDTNYADSVKGRFTISRDNAKITVYLQMNSLKPEDTAVYYCAAEGFRGYGYWGQGTQVTVSS | low polyreactivity
12 | QVQLVESGGGLVQAGGSLRLSCAASGIILDPNAMGWYRQAPGKEREMVAGITRSGVSTYYADSVKGRFTISRDNAKNTVYLQMNSLKPEDTAVYYCANDRIYGSKGEDDDYWGQGTQVSVSS | low polyreactivity
13 | QVQLVESGGGLVQAGGSLRLSCAASGSTFPLYAMGWYRQAPGKDRELVAAITWSGANTYYADSVKGRFTISRDNAKNTVSLQMNSLKPEDTAVYYCAAGSYAGFAVIGYYYWGQGTQVTVSS | low polyreactivity
14 | QVQLVESGGGLVQAGGSLRLSCAASGSTFRWYAMGWYRQAPGKERELVAAIRSSGGSTYYADSVKGRFTISRDNAKNTVYLQMNSLKPEDTAVYYCNTYPARNFYSVAGGYWGQGTQVTVSS | low polyreactivity
15 | QVQLVESGGGLVQAGGSLRLSCAASGRIFRRYAMGWYREAPGKERELVAAITASGGITYYADSVKGRFTISRDNAKNTVYLQMNSLKPEDTAVYYCAARGSSGYDYWGQGTQVTVSS | high polyreactivity
16 | QVQLVESGGGLVQAGGSLRLSCAASGRTFNRNAMGWYRQAPGKERELVAAISRGGGGTFYADSVKGRFTISRDNAKNTVYLQMNSLKPEDTAVYYCAAVPIAADKANGYDYWGQGTQVTVSS | low polyreactivity
17 | QVQLVESGGGLVQAGGSLRLSCAASGRTFYRNAMGWYRQAPGKERELVASIRRNGGSTYYADSVKGRFTISRDNAKNTVYLQMNSLKPEDTAVYYCAAKFYWRGQSFRSGNFYWGQGTQVTVSS | high polyreactivity
18 | QVQLVESGGGLVQAGGSLRLSCAASGSIFSQKAMVWYRQAPGKERELVASISTGDSSTYADSVKGRFTISRDNAKNTVYLQMNSLKREDTAVYYCNAYRYNALPWRYVGYDYWGQGTQVTVSS | low polyreactivity
19 | QVQLVESGGGLVQAGGSLRLSCAASGRTIKYYAMGWDRQAPGKERELVAVISWSGGSTYYADSVKGRFTISRDNAKNTVYLQMISLKPEDTAVYYCNAYVYAYYAGYNYWGQGTQVTVSS | high polyreactivity
20 | QVQLVESGGGLVQAGGSLRLSCAASGSIFYHYAMGWYRQAPGKEWELVAAITITGGSTYYADSVKGRFTISRDNAKNTVYLQMNSLKPEDTAVYYCAAEGWYGYQWFDYWGQGTQVTVSS | high polyreactivity
21 | QVQLVESGGGLVQAGGSLRLICAASGVIFTGYTMGWYREAPGKESELVAAISYRGGSTYYADSVKGRFTISRDNAKITVYFQMNRLKPEDTAVYYCNAVWSNFRLGYDHWGQGTQVTVSS | high polyreactivity
22 | QVQLVESGGGLVQAGGSLRLSCAASGFIFGKYAMGWYRQAPGKERELVAAISRSSRTFYADSVKGRFTISRDNAKNTVYLQMNSRKPEDTAVYYCAVKKRAPDGDYWGQGTQVTVSS | high polyreactivity

Row | Sequence | polyreactivity (PSR sort gate)
23 | QVQLVESGGGLVQAGGSLRLSCAASGFTFDFYAMGWYRQAPGKERELVAAISRRGGRTSYADSVKGRFTISRDNAKNTVYLQMNSLKPEDTAVYYCAAASLGGDGLVAYYYWGQGTQVTVSS | high polyreactivity
24 | QVQLVESGGGLVQAGGSLRLSCAASGYILYPYAMGWYRQAPGKERELVAAIRQRGGSTYYADSVKGRFTISRDNAKNTVYLQMNSLKPEDTAVYYCAAYLSPKRALTRGYGYWGQGTQVTVSS | high polyreactivity
25 | QVQLVESGGGLVQAGGSLRLSCAASGRIFRRNAMGWYRQAPGKERELVAAISSSGGRTYYADSVKGRFTISRDNAKNTVYLQMNSLKPEDTAVYYCATRESLEPGYYWGQGTQVTVSS | high polyreactivity
26 | QVQLVESGGGLVQAGGSLRLSCAASGRIFTRYAMGWYRQAPGKERELVATISGSGSTNYADSVKGRFTISRDNAKNTVYLQMNSLKPEDTAVYYCNRRSRREYDYWGQGTQVTVSS | low polyreactivity
27 | QLQLVESGGGLVQAGGSLPLTCAASGRTFARNAMGWYRQAPGKERELVARISRRAGSTYYADSVKGRFTISRDNAKNTVYLQMNSLKPAETAVYYCNAGPPYSYARDYWGQGTQVTVSS | high polyreactivity
28 | QVQLVESGGGLVQAGGSLRLICAASGRIFYNYVMGCYRQAPGKERDLVAAISVSSGNTYYADSVKGRFTISRDYAKITVYLQMNSLKPEDTAVYYCARLRTVGGYSKYDYWGQGTQVTVSS | low polyreactivity
29 | QVQLVESGGGLVQAGGSLRLSCAASGYIFNYAMGWYRQAPGKERQLVAAISRRGGSTYYADSVKGRFTISRDNAKNTVYLQMISLKPEDTAVYYCADRLPGYYGIGDYWGQGSQVTVSS | high polyreactivity
30 | QVQLVESGGGLVQAGGSLRLSCAASGRIFAYYAMGWYRQAPGKERELVAAISSGGSTKYADSVKGRFTISRDNAKNTVYLQMNSLKPEDTAVYYCAAKYGYRKYRGFQNGGDYWGQGTQVNVSS | high polyreactivity
31 | QVQLVESGGGLVQAGGSLRLSCAASGFTFDRYAMGWYRQAPGKERELVAAISRSGASTYYADSVKGRFTISRDNAKNTVYLQMNSLKPDDTAVYYCAAKQRTKGDYWGQGTQVTVSS | high polyreactivity
32 | QVQLVESGGGLVQAGGSLRLSCAASGSTFPGNAMGWYRQAPGKERELVAAITSTGTTYYADSVKGRFTISRDNAKNTVYLQMNSLKPEDTAVYYCNADPSPDPSTFDYWGQGTQVTVSS | low polyreactivity
33 | QVQLVESGGGLVQAGGSLRLSCAASGRIFPVNDMGWYRQAPGKERELVASITYSGGSTYYADSVKGRFTISRDNAKNTVYLQMNSLKPEDTAVYYCAADDGSQYYFDSPHEYDYWGQGTQVTVSS | low polyreactivity
34 | QVQLVESGGGLDQAGGSLRLICAASGRIFDVNAMGWYRQAPGKERELVAAISDSGGSTYYADSVKGRFTISRDNAKNTVYLQMNSLKPEDTAVYYCNANTPSLKRSTFNYWGQGTQVTVSS | low polyreactivity
35 | QVQLVESGGGLVQAGGSLRLSCAASGRIFRFYAMGCYIQAPGKERELVAVITARGGSTYYADSVKGRFTISRDNAKNNVYLQMNSLKPEDTAVYYCASTRVKGYTVVKSRRGEIDYWGQGTQVTVSS | high polyreactivity
36 | QVQLVESGGGLVQAGGSLRLSCAASGYTFYSNAMGWYRQAPGKERELVAVISRGGGTYYADSVKGRFTISRDNAKNTVYLQMNSLKPEDTAVYYCARRIGHGSRPYWLETWRYPYEYWGQGTQVTVSS | low polyreactivity
37 | QDQLVESGGGLVQAGGSLRLSCAASGSTFYIYAMGWNIQAPGKERELVAAISTTDGTTYYADSVKGRFTISRDNAKKTVYLQMNSLKPEDTAVYYCAAEWFGSVQPAYDYWGQVTQVTVSS | high polyreactivity
38 | QVQLVESGGGLVQAGGSLRLSCAASGSTFQPNAMGWYRQAPGKERELVAISSGDDTYYADSVKGRFTISRDKAKNTVYFQMNSLIPEDSAVYYCAAEYSFIYYWGQGTQVTVSS | low polyreactivity
39 | QVQLVESGGGLVQAGGSLRLSCAASGFTLFTNAMGWYRQAPWKERELLARISRGGSTKYADSVKGRFTISRDNAKNTVYLQMNSLKREDTAVYSCATGYYGYRYGYWGQGTQVTVSS | high polyreactivity
40 | QVQLVESGGGLVQAGGSLRLSCAASGRIFPSYAMGWYIQAPGKERELVAAITSSDSTYYADSVKGRFTISRDNAKNTVYLQMNSLKPEDTAVYYCAAAYSYSGWWWFGYWGQGTQVTVSS | high polyreactivity
41 | QVQLVESGGGLGQAGGSLRLSCAASGSTLNYYAMGWYTQAPGKERELVAAITWSGGSTSYADSVKGRFTISRDNAKNTVYLQMNSLKPEDTAVYYCATDFPTVQLYDTDWLSSDMGYWGQGTQVTVSS | low polyreactivity
42 | QVQLVESGGGLVQAGGSLRLSCAASGSIFRSYAMGWYRQAPGKERELVAGITRGGSTNYADSVKGRFTISRYNAKNTVYLQMNSLKPEDTAVYYCNADTVSLGHSLDDGDYWGQGTQVTVSS | low polyreactivity
43 | QVQLVESGGGLVQAGGSLRLSCAASGFTFSNYDMGWYRQAPGKEREFVADIDWSGGTTYYADSVKGRFTISRDNAKNTVYLQMNSLKPEDTAVYYCATDGYRALSYKYDYWGQGTQVTVSS | low polyreactivity

— the nanobody polyreactivity screen of Harvey et al. (2022)
